Positions count from the first letter of the chain named. In names and notes the source's numbering stands. Blank lines part the entries; values can stand above or below the molecule they belong to.
T1: GST-Ana2, full length (Drosophila, UniProt Q9XZ31 1-420)
T1 sequence (looked up): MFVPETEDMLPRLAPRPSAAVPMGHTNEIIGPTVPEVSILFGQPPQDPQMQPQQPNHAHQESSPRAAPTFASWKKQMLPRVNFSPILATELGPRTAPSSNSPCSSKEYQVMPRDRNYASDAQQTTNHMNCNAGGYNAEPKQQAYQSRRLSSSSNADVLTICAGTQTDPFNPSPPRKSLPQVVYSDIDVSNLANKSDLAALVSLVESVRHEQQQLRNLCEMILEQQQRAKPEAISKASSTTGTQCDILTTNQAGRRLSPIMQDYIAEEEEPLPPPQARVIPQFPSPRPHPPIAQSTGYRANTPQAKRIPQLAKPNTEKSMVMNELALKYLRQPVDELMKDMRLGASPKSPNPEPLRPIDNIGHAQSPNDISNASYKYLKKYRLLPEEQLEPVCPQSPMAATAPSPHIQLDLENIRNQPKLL

B1: V5-Ana2 (anastral spindle 2), full length, wild type (natural protein)
chain: T1 sequence (looked up)
B2: His6-Ana2 CT (aa 318–420), wild type (domain or fragment, Drosophila, UniProt Q9XZ31 318-420, looked up)
chain: SMVMNELALKYLRQPVDELMKDMRLGASPKSPNPEPLRPIDNIGHAQSPNDISNASYKYLKKYRLLPEEQLEPVCPQSPMAATAPSPHIQLDLENIRNQPKLL
B3: MBP-Ana2 NT (aa 1–317), wild type (domain or fragment, Drosophila, UniProt Q9XZ31 1-317, looked up)
chain: MFVPETEDMLPRLAPRPSAAVPMGHTNEIIGPTVPEVSILFGQPPQDPQMQPQQPNHAHQESSPRAAPTFASWKKQMLPRVNFSPILATELGPRTAPSSNSPCSSKEYQVMPRDRNYASDAQQTTNHMNCNAGGYNAEPKQQAYQSRRLSSSSNADVLTICAGTQTDPFNPSPPRKSLPQVVYSDIDVSNLANKSDLAALVSLVESVRHEQQQLRNLCEMILEQQQRAKPEAISKASSTTGTQCDILTTNQAGRRLSPIMQDYIAEEEEPLPPPQARVIPQFPSPRPHPPIAQSTGYRANTPQAKRIPQLAKPNTEK
B4: MBP-Ana2 NT-2PM (aa 1–317, T33E/S38D) (domain or fragment, Drosophila, UniProt Q9XZ31 1-317, looked up)
chain: B3 chain with T33E, S38D
B5: Plk4 1–317-FLAG-His6 (domain or fragment, Drosophila, UniProt O97143 1-317, looked up)
chain: MLSNRAFGETIEDYEVQHLLGKGGFATVYKARCLHTHQDVAIKMIDKKLIQGTGLTNRVRQEVEIHSRLKHPSVLQLYTFFQDANYVYLVLELAHNGELHRYMNHIARPFTETEAASILKQVVAGLLYLHSHNIMHRDISLSNLLLSREMHVKIADFGLATQLKRPDERHMTMCGTPNYISPEVVSRTSHGLPADVWSVGCMLYTLLVGRPPFETDAVQSTLNKVVMSEYIMPAHLSYEAQDLINKLLKKLPHERITLEAVLCHPFMLKCSNGGHSAPGALNVFSQSMESGDSGIITFASSDSRNSQQIRSVENSGP

Experiments:
[1] = target: MBP-Ana2 NT-2PM (aa 1–317, T33E/S38D) (Drosophila) (UniProt Q9XZ31); assay: pull-down
[2] = target: Plk4-GFP lacking PB3 (Drosophila); assay: co-IP
[3] = target: Plk4-GFP lacking the putative CC and PB3 (Drosophila); assay: co-IP
[4] = target: B4; assay: pull-down
[5] = target: the molecule itself; assay: pull-down
[6] = target: T1, GST-Ana2, full length; assay: pull-down

fold of His6-Ana2 CT pulled down relative to WT NT with WT CT [1]: 3.5 fold
Molecule: His6-Ana2 CT-3PM (aa 318–420, S318/S370/S373 phosphomimetic) (from UniProt Q9XZ31 318-420) (domain or fragment)

Molecule: B1
fold decrease of co-precipitated Ana2 on deletion of PB3 [2]: 2 fold | further fold decrease of co-precipitated Ana2 relative to deletion of PB3 alone [3]: 2 fold

Molecule: B2
binding result [4]: binds

Molecule: B3
binding result [5]: binds

Molecule: B4
binding result [5]: binds

Molecule: B5
binding result [6]: binds

From article PMC5881488 (The Journal of Cell Biology, 2018)
